According to article PMC2394828 (Acta Crystallographica Section D: Biological Crystallography, 2007):
Values joined by “and” are separate entries in the source; they are usually repeats but may differ in a detail not shown here. Equal entries are not always repeated.

Columns and labels:
[1] = target: the molecule itself; assay: crystal structure
[2] = target: the molecule itself; assay: AUC + SEC
[3] = target: the molecule itself; assay: crystal structure; remark: listed apart in the source

Protein | stoichiometry N [1] | stoichiometry N [2] | stoichiometry N [3]
anti-TRAP from Bacillus licheniformis (natural protein, UniProt Q65NU7 1-53, looked up) MVIATDDLETTCPNCNGSGREEPEPCPKCSGKGVILTAQGSTLLHFIKKHLNE | 12 |  | 
thioredoxin peroxidase B from human erythrocytes (enzyme, UniProt P32119 1-198, looked up) MASGNARIGKPAPDFKATAVVDGAFKEVKLSDYKGKYVVLFFYPLDFTFVCPTEIIAFSNRAEDFRKLGCEVLGVSVDSQFTHLAWINTPRKEGGLGPLNIPLLADVTRRLSEDYGVLKTDEGIAYRGLFIIDGKGVLRQITVNDLPVGRSVDEALRLVQAFQYTDEHGEVCPAGWKPGSDTIKPNVDDSKEYFSKHN |  | 8 and 12 | 10
